# From patent US20180141988A1 (Pieris, published 2018)
# Changes are numbered by the printed parent chain.
# B1: negative control lipocalin (SEQ ID NO: 2) (other)
# chain: QDSTSDLIPAPPLSKVPLQQNFQDNQFHGKWYVVGLAGNAILREDKDPQKMYATIYELKEDKSYNVTSVLFRKKKCDYWIRTFVPGSQPGEFTLGNIKSYPGLTSYLVRVVSTNYNQHAMVFFKKVSQNREYFKITLYGRTKELTSELKENFIRFSKSLGLPENHIVFPVPIDQCIDG
# B2: lipocalin mutein of SEQ ID NO: 15 (designed binder)
# chain: QDSTSDLIPAPPLSKVPLQQNFQDNQFQGKWYVVGRAGNVGLREDKDPPKMRATIYELKEDKSYDVTGVRFGEKKIKYSIGTFVPGSQPGEFTLGQIKSQPGDTANLVRVVSTNYNQHAMVFFKEVYQNREIFFIILYGRTKELTSELKENFIRFSKSLGLPENHIVFPVPIDQAIDGSAWSHPQFEK
# notes: hNGAL (Lcn2) mutein; also called optimized GPC3 specific lipocalin mutein
# B3: lipocalin mutein of SEQ ID NO: 16 (designed binder)
# chain: B2 chain with G72D, E73S, I76V, K77T, Q100E, D103N
# notes: as for B2
# Assays:
# [1] = target: T1, human GPC3 on stably transfected SK-HEP-1 cells (human, UniProt P51654 25-554); assay: MSD-based (ECL) cell binding assay on immobilized SK-HEP-1 cells transfected with human GPC3; detection with rabbit anti-scaffold antibody and Sulfotag-labelled anti-rabbit antibody
# T1 construct: whole, on cells; also called SK-HEP-1::human GPC3
# Experimental: (§1) Binding of optimized lipocalin muteins of SEQ ID NOs: 5-16 to human, cynomolgus and mouse GPC3 compared to SEQ ID NOs: 3 and 4 was tested on SK-HEP-1 cells using an ECL format (FIG. 1). In this experiment, dilution series of lipocalin muteins were incubated on MSD plates coated with human, cynomolgus or mouse GPC3 overexpressing SK-HEP-1 cells.
# (§2) SEQ ID NOs: 3, 4, 5, 7, 8, 9, 10, 12, 13, 14, 15 and 16 (using 1000 nM as starting concentration) were serially diluted at a 1:3 ratio down to the picomolar range in PBS/Casein. 20 μl of the dilution series were transferred to the SK-HEP-1-coated plates for 1 hour at room temperature.
# (§3) To allow for detection and quantification of bound GPC3 specific lipocalin muteins, the residual supernatants were discarded and 20 μl of a mixture of rabbit anti scaffold antibody (2 μg/ml) and Sulfotag labelled anti rabbit antibody (5 μg/ml) prepared in PBS/casein was added to the wells and incubated for 1 h at RT. After washing, 35 μl surfactant-free reading buffer was added to each well and the ECL intensity of every well was read using a MSD reader.
# [2] = target: T1, human GPC3 on stably transfected …; assay: MSD-based (ECL) cell binding assay on transfected SK-HEP-1 cells
# Experimental: as §1, §2, §3
# [3] = target: T2, mouse GPC3 on stably transfected SK-HEP-1 cells (mouse, UniProt Q8CFZ4 25-553); assay: as above
# T2 construct: whole, on cells; also called SK-HEP-1::mouse GPC3; murine GPC3
# Experimental: as §1, §2, §3
# [4] = target: T3, cynomolgus GPC3 on stably transfected SK-HEP-1 cells (cynomolgus, UniProt A0A2K5VK50 24-553); assay: as above
# T3 construct: whole, on cells; also called SK-HEP-1::cyno GPC3; SK-HEP-1::cynomolugus GPC3
# Experimental: as §1, §2, §3
# [5] = target: T4, Human GPC3 (2119-GP; R&D systems), biotinylated (human, UniProt P51654 25-559, biotinylated using standard NHS chemistry); assay: SPR (Biacore T200), biotinylated GPC3 captured on chip, mutein in flow
# T4 construct: Bought protein; also called human Glypican-3
# Experimental: (§4) SPR analysis of the binding of the optimized Lcn2 muteins to human and mouse GPC3 was performed at 25° C. on a Biacore T200 instrument (GE Healthcare) using HBS-EP+ (1x; BR-1006-69; GE Healthcare) as running buffer. The Biotin CAPture Kit (GE Healthcare) was used to immobilize biotinylated GPC3 to a chip surface. Human GPC3 (2119-GP; R&D systems) and murine GPC3 (6938-GP; R&D systems) were biotinylated using standard NHS chemistry. Undiluted Biotin CAPture Reagent (streptavidin conjugated with ss-DNA oligo) was captured on a Sensor Chip CAP with the pre-immobilized complementary ss-DNA oligo. Thereafter, biotinylated human or murine GPC3 at 1 μg/ml was applied for 300 s at a flow rate of […].
# (§5) Lcn2 muteins were applied in concentrations of 10 nM, 40 nM and 160 nM at a flow rate of 30 μL/min. The dilutions were injected with association times of 180 s and dissociation times of 600 s to obtain ka and kd information. Regeneration of the chip surface was achieved by injecting 6 M Guanidinium-HCl+0.25 M NaOH (120 s) with a flow rate of 10 μL/min. Injection of regeneration solutions was followed by an extra wash step with H₂O and a stabilization period of 120 s.
# (§6) The data were double-referenced by subtraction of the corresponding signals measured for the control channel (loaded with Biotin CAPture reagent only) and by subtraction of buffer injections from the binding responses. Association rate constant ka and dissociation rate constant kd for the binding reaction were determined using Biacore T200 Evaluation Software V2.0 for data processing and kinetic fitting. The data were globally fit with 1:1 binding model.
# [6] = target: T5, murine GPC3 (6938-GP; R&D systems), biotinylated (murine, UniProt Q8CFZ4 25-558, limits assumed, biotinylated using standard NHS chemistry); assay: as above
# T5 construct: Bought protein; also called mouse GPC3
# Experimental: as §4, §5, §6
# T5 sequence (Q8CFZ4 25-558 limits assumed): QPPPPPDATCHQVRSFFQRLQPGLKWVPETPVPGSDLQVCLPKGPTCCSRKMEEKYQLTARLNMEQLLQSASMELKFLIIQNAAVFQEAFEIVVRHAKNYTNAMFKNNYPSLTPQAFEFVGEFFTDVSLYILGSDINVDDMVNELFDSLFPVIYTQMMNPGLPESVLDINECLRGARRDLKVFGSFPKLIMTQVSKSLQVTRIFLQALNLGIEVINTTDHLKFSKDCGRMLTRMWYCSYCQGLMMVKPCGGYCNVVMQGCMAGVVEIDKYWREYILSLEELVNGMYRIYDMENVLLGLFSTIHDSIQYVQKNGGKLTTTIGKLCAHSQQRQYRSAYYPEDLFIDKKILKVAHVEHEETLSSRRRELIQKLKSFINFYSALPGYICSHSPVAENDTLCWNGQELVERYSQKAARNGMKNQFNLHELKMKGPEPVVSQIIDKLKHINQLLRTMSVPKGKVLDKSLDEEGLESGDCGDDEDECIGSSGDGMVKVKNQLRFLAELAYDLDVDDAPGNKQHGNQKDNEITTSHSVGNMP
# T4 sequence (P51654 25-559 limits assumed): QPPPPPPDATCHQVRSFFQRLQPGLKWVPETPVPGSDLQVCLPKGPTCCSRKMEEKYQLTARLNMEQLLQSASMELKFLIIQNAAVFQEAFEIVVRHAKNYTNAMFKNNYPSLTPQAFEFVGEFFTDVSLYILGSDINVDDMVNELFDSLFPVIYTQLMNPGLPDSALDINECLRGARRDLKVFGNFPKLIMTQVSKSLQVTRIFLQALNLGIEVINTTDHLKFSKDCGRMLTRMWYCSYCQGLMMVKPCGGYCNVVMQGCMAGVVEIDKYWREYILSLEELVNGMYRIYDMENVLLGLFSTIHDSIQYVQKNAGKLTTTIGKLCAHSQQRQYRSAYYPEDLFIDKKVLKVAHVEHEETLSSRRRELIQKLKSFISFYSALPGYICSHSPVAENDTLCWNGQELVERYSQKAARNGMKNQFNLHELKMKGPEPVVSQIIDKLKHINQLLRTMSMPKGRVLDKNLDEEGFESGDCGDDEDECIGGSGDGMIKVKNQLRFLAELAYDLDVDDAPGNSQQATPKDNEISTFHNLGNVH
# T1 sequence (P51654 25-554 limits assumed): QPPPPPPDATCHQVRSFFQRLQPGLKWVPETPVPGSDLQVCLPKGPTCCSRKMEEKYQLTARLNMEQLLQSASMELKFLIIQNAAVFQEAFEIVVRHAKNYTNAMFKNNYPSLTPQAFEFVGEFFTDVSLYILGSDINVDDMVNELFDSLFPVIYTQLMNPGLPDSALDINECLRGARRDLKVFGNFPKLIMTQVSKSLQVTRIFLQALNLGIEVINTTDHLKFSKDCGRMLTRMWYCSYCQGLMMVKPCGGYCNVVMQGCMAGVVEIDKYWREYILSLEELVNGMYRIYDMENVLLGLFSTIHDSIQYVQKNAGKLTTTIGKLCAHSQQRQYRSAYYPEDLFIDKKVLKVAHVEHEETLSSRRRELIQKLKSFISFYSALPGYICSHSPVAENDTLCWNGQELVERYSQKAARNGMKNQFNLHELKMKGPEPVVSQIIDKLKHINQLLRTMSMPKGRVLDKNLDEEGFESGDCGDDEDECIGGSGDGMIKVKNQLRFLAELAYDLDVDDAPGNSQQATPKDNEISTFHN
# T2 sequence (Q8CFZ4 25-553 limits assumed): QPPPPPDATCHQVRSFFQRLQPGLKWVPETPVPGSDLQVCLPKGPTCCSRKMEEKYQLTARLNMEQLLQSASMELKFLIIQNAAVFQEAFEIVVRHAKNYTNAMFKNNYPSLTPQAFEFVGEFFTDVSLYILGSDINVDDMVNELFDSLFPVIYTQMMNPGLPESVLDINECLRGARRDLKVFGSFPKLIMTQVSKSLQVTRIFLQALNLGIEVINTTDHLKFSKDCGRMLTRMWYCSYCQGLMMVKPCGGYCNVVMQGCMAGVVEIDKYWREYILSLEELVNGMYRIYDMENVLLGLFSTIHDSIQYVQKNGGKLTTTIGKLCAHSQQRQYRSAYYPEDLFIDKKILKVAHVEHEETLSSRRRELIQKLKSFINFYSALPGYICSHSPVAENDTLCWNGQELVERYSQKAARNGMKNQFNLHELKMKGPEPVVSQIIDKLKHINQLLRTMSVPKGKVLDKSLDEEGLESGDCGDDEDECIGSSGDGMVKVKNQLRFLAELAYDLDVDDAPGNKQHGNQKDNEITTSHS
Binder,binding result [1],EC50 [2],EC50 [3],EC50 [4],Kd [5],koff [5],kon [5],Kd [6],koff [6],kon [6]
B1,no binding (tested: 1000 nM),–,–,–,–,–,–,–,–,–
B2,–,1.6 nM,4.8 nM,1.6 nM,0.035 nM,4.9e-05 s⁻¹,1.4e+06 M⁻¹ s⁻¹,0.072 nM,9.1e-05 s⁻¹,1.3e+06 M⁻¹ s⁻¹
B3,–,2.2 nM,4.4 nM,2.5 nM,0.171 nM,0.00011 s⁻¹,670000 M⁻¹ s⁻¹,0.311 nM,0.00019 s⁻¹,610000 M⁻¹ s⁻¹
